For test [1], the target named is FimH adhesin (Escherichia coli, UniProt P08191 22-300). Briefly: AUC.
Test [2] concerns the target T1, FimD usher, full-length (undigested), with C-terminal Strep-tag II (Escherichia coli, UniProt P30130 46-878).
T1 sequence: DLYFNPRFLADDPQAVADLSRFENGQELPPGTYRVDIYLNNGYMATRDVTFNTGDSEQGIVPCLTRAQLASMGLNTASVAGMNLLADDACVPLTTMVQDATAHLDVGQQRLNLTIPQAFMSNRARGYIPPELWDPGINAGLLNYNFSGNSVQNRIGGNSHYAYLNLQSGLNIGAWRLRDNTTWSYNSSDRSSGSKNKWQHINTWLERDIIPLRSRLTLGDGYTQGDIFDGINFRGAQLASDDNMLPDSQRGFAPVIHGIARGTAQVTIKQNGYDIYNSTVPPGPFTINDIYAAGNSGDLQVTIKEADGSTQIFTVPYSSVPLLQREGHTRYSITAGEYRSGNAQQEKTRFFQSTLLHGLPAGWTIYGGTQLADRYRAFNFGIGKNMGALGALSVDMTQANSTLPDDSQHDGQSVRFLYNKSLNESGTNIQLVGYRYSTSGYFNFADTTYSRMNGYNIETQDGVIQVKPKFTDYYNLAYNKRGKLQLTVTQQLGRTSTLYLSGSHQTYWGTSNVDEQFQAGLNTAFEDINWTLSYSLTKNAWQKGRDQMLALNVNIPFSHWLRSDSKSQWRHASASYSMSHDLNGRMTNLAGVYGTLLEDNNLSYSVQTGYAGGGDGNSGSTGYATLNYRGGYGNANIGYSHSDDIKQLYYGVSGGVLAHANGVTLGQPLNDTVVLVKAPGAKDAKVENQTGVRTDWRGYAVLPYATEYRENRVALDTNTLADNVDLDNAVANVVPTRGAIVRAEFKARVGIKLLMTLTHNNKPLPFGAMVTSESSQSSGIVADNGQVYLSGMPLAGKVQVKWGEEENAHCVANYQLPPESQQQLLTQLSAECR
Kind of test: AUC.

Chain of FimH adhesin (P08191 22-300): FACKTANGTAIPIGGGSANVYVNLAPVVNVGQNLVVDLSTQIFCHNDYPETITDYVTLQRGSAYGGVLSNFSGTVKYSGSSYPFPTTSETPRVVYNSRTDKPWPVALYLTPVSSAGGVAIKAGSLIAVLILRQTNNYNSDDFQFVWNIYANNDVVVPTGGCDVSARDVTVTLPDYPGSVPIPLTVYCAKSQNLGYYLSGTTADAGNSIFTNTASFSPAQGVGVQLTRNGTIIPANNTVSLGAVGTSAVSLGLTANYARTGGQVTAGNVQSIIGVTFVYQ

B1: FimC chaperone (His-tagged, from pETS1001 fimCHisH) (natural protein)
chain: GVALGATRVIYPAGQKQEQLAVTNNDENSTYLIQSWVENADGVKDGRFIVTPPLFAMKGKKENTLRILDATNNQLPQDRESLFWMNVKAIPSMDKSKLTENTLQLAIISRIKLYYRPAKLALPPDQAAEKLRFRRSANSLTLINPTPYYLTVTELNAGTRVLENALVPPMGESTVKLPSDAGSNITYRTINDYGALTPKMTGVME
B1: the “stoichiometry N” value in test [1] and in test [2] was 1 in each case.
